Biological target: the molecule itself
Assay: single-molecule pulldown (SiMPull) with subunit counting by photobleaching steps; surface receptors labelled with BG-LD555 on HEK 293T cells, lysed in 1.2% IGEPAL, diluted in 0.1% IGEPAL, immobilised by biotinylated anti-HA antibody on a PEG-passivated coverslip, TIRF imaging; SNAP labelling efficiency ~80%; background two-step bleaching ~5-10%

| Protein | percent of spots bleaching in two steps [%] | stoichiometry N |
| --- | --- | --- |
| SNAP-mGluR3-TMD (domain or fragment, rat, UniProt P31422 567-879, looked up, SNAP tag labelled with BG-LD555, mGluR3, rat; LBD and CRD deleted; following the SNAP tag the receptor starts at E567; Made by modifying the full-length SNAP-tagged cDNA of Doumazane et al., 2011; source: HEK 293T, transfected, surface-labelled, in detergent lysate; not shown: HA, N-terminal, kept; SNAP, N-terminal, kept) EDYIKWEDAWAIGPVTIACLGFLCTCIVITVFIKHNNTPLVKASGRELCYILLFGVSLSYCMTFFFIAKPSPVICALRRLGLGTSFAICYSALLTKTNCIARIFDGVKNGAQRPKFISPSSQVFICLGLILVQIVMVSVWLILETPGTRRYTLPEKRETVILKCNVKDSSMLISLTYDVVLVILCTVYAFKTRKCPENFNEAKFIGFTMYTTCIIWLAFLPIFYVTSSDYRVQTTTMCISVSLSGFVVLGCLFAPKVHIVLFQPQKNVVTHRLHLNRFSVSGTATTYSQSSASTYVPTVCNGREVLDSTTSSL | ~30 | 2 |
| SNAP-tagged full-length mGluR2 (HA-SNAP-mGluR2) (receptor, rat, UniProt P31421 19-872, looked up, SNAP tag labelled with BG-LD555 (SiMPull); SNAP tag labelled with donor and acceptor fluorophores (inter-LBD FRET), metabotropic glutamate receptor 2 (mGluR2), rat, full-length, behind N-terminal HA and SNAP tags; construct of Doumazane et al., 2011; also called mGluR2-WT; WT-SNAP-mGluR2; source: HEK 293T, transfected; surface-labelled, in detergent lysate (SiMPull); on living cells (FRET); not shown: HA, N-terminal, kept; SNAP, N-terminal, kept) EGPAKKVLTLEGDLVLGGLFPVHQKGGPAEECGPVNEHRGIQRLEAMLFALDRINRDPHLLPGVRLGAHILDSCSKDTHALEQALDFVRASLSRGADGSRHICPDGSYATHSDAPTAVTGVIGGSYSDVSIQVANLLRLFQIPQISYASTSAKLSDKSRYDYFARTVPPDFFQAKAMAEILRFFNWTYVSTVASEGDYGETGIEAFELEARARNICVATSEKVGRAMSRAAFEGVVRALLQKPSARVAVLFTRSEDARELLAATQRLNASFTWVASDGWGALESVVAGSERAAEGAITIELASYPISDFASYFQSLDPWNNSRNPWFREFWEERFHCSFRQRDCAAHSLRAVPFEQESKIMFVVNAVYAMAHALHNMHRALCPNTTHLCDAMRPVNGRRLYKDFVLNVKFDAPFRPADTDDEVRFDRFGDGIGRYNIFTYLRAGSGRYRYQKVGYWAEGLTLDTSFIPWASPSAGPLPASRCSEPCLQNEVKSVQPGEVCCWLCIPCQPYEYRLDEFTCADCGLGYWPNASLTGCFELPQEYIRWGDAWAVGPVTIACLGALATLFVLGVFVRHNATPVVKASGRELCYILLGGVFLCYCMTFVFIAKPSTAVCTLRRLGLGTAFSVCYSALLTKTNRIARIFGGAREGAQRPRFISPASQVAICLALISGQLLIVAAWLVVEAPGTGKETAPERREVVTLRCNHRDASMLGSLAYNVLLIALCTLYAFKTRKCPENFNEAKFIGFTMYTTCIIWLAFLPIFYVTSSDYRVQTTTMCVSVSLSGSVVLGCLFAPKLHIILFQPQKNVVSHRAPTSRFGSAAPRASANLGQGSGSQFVPTVCNGREVVDSTTSSL | ~60 | 2 |
| SNAP-mGluR2-TMD (HA-SNAP-tagged isolated transmembrane domain of mGluR2) (domain or fragment, rat, UniProt P31421 558-872, looked up, SNAP tag labelled with BG-LD555 (SiMPull); with BG-LD655 as acceptor or with a mixture of BG-LD555 and BG-LD655 (FRET), mGluR2, rat; LBD and CRD deleted; following the SNAP tag the receptor starts at Q558; Made by modifying the full-length SNAP-tagged cDNA of Doumazane et al., 2011; also called HA-SNAP-mGluR2-TMD; isolated mGluR2 TMD; source: HEK 293T, transfected; surface-labelled, in detergent lysate (SiMPull); on living cells (FRET); not shown: HA, N-terminal, kept; SNAP, N-terminal, kept) QEYIRWGDAWAVGPVTIACLGALATLFVLGVFVRHNATPVVKASGRELCYILLGGVFLCYCMTFVFIAKPSTAVCTLRRLGLGTAFSVCYSALLTKTNRIARIFGGAREGAQRPRFISPASQVAICLALISGQLLIVAAWLVVEAPGTGKETAPERREVVTLRCNHRDASMLGSLAYNVLLIALCTLYAFKTRKCPENFNEAKFIGFTMYTTCIIWLAFLPIFYVTSSDYRVQTTTMCVSVSLSGSVVLGCLFAPKLHIILFQPQKNVVSHRAPTSRFGSAAPRASANLGQGSGSQFVPTVCNGREVVDSTTSSL | ~45 | 2 |
| SNAP-mGluR5-TMD (domain or fragment, human, UniProt P41594 570-1212, looked up, SNAP tag labelled with BG-LD555 (SiMPull); with donor and acceptor fluorophores (FRET), mGluR5, human; LBD and CRD deleted; following the SNAP tag the receptor starts at V570; Made by modifying the full-length SNAP-tagged cDNA of Doumazane et al., 2011; source: HEK 293T, transfected; surface-labelled, in detergent lysate (SiMPull); on living cells (FRET); not shown: HA, N-terminal, kept; SNAP, N-terminal, kept) VQYLRWGDPEPIAAVVFACLGLLATLFVTVVFIIYRDTPVVKSSSRELCYIILAGICLGYLCTFCLIAKPKQIYCYLQRIGIGLSPAMSYSALVTKTNRIARILAGSKKKICTKKPRFMSACAQLVIAFILICIQLGIIVALFIMEPPDIMHDYPSIREVYLICNTTNLGVVTPLGYNGLLILSCTFYAFKTRNVPANFNEAKYIAFTMYTTCIIWLAFVPIYFGSNYKIITMCFSVSLSATVALGCMFVPKVYIILAKPERNVRSAFTTSTVVRMHVGDGKSSSAASRSSSLVNLWKRRGSSGETLRYKDRRLAQHKSEIECFTPKGSMGNGGRATMSSSNGKSVTWAQNEKSSRGQHLWQRLSIHINKKENPNQTAVIKPFPKSTESRGLGAGAGAGGSAGGVGATGGAGCAGAGPGGPESPDAGPKALYDVAEAEEHFPAPARPRSPSPISTLSHRAGSASRTDDDVPSLHSEPVARSSSSQGSLMEQISSVVTRFTANISELNSMMLSTAAPSPGVGAPLCSSYLIPKEIQLPTTMTTFAEIQPLPAIEVTGGAQPAAGAQAAGDAARESPAAGPEAAAAKPDLEELVALTPPSPFRDSVDSGSTTPNSPVSESALCIPSSPKYDTLIIRDYTQSSSSL | ~30 | 2 |
| SNAP-mGluR1-TMD (domain or fragment, rat, UniProt P23385 583-1199, looked up, SNAP tag labelled with BG-LD555, LBD and CRD deleted; following the SNAP tag the receptor starts at V583; Made by modifying the full-length SNAP-tagged cDNA of Doumazane et al., 2011; source: HEK 293T, transfected, surface-labelled, in detergent lysate; not shown: HA, N-terminal, kept; SNAP, N-terminal, kept) VRYLEWSDIESIIAIAFSCLGILVTLFVTLIFVLYRDTPVVKSSSRELCYIILAGIFLGYVCPFTLIAKPTTTSCYLQRLLVGLSSAMCYSALVTKTNRIARILAGSKKKICTRKPRFMSAWAQVIIASILISVQLTLVVTLIIMEPPMPILSYPSIKEVYLICNTSNLGVVAPVGYNGLLIMSCTYYAFKTRNVPANFNEAKYIAFTMYTTCIIWLAFVPIYFGSNYKIITTCFAVSLSVTVALGCMFTPKMYIIIAKPERNVRSAFTTSDVVRMHVGDGKLPCRSNTFLNIFRRKKPGAGNANSNGKSVSWSEPGGRQAPKGQHVWQRLSVHVKTNETACNQTAVIKPLTKSYQGSGKSLTFSDASTKTLYNVEEEDNTPSAHFSPPSSPSMVVHRRGPPVATTPPLPPHLTAEETPLFLADSVIPKGLPPPLPQQQPQQPPPQQPPQQPKSLMDQLQGVVTNFGSGIPDFHAVLAGPGTPGNSLRSLYPPPPPPQHLQMLPLHLSTFQEESISPPGEDIDDDSERFKLLQEFVYEREGNTEEDELEEEEDLPTASKLTPEDSPALTPPSPFRDSVASGSSVPSSPVSESVLCTPPNVTYASVILRDYKQSSSTL | ~30 | 2 |

Reference: article PMC6588349, “Conformational dynamics between transmembrane domains and allosteric modulation of a metabotropic glutamate receptor” (eLife, 2019)
